According to patent publication US20060052291A1:

Tests used:
[1] = target: T1, human G-CSF receptor on transfected mouse BaF3 cells (mBaF3/hG-CSFR) (human) (UniProt Q99062); test: cell-based or functional assay
T1 sequence (looked up): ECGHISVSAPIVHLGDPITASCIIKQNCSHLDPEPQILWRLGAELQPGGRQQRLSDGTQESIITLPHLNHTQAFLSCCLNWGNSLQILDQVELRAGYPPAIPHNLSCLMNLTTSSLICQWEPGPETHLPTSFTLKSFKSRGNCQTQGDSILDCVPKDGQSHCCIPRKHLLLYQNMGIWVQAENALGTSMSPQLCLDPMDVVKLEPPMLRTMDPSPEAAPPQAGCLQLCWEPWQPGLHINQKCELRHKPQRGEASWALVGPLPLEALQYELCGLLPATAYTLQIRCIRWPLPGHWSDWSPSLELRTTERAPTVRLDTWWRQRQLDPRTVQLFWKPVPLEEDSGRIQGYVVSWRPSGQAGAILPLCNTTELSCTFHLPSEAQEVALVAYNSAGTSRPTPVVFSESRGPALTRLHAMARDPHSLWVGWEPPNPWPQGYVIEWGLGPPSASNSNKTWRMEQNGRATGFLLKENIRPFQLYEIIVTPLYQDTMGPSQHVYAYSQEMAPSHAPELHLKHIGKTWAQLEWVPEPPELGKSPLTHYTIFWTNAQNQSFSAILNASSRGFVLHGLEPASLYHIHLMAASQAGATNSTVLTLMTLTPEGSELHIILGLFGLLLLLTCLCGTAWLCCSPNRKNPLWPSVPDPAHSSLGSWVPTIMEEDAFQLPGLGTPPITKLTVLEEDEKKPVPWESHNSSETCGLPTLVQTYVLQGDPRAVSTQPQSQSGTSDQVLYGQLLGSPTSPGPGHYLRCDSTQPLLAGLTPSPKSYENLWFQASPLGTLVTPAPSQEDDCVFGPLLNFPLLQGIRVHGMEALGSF

[2] = target: T2, chimeric Flt3/G-CSF receptor on transfected mouse Baf/3 cells (human) (UniProt P36888); test: cell-based or functional assay
T2 sequence (looked up): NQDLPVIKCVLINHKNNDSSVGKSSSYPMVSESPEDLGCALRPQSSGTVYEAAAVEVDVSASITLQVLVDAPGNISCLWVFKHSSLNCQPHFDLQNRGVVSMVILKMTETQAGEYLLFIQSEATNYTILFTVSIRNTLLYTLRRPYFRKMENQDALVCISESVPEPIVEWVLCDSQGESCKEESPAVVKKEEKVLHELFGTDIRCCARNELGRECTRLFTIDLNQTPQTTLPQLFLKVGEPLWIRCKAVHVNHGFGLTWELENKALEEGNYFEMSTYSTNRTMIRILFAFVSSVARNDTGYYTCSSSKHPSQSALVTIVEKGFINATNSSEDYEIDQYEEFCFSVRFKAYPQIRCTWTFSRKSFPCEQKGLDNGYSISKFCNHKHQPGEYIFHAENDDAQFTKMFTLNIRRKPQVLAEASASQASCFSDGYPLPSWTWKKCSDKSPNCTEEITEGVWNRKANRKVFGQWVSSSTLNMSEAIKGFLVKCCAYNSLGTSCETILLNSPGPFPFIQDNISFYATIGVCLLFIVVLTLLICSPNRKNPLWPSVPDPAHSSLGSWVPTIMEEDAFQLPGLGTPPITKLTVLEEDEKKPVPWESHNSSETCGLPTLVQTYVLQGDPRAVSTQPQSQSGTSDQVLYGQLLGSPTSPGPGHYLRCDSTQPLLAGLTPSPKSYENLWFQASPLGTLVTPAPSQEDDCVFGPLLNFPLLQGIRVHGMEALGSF

In the case of “recombinant human G-CSF (from UniProt P09919 31-204) (ligand)”, the Average EC50 (n = 9), BAF3/G-CSF cell proliferation ([3H]-thymidine) [1] is reported as 0.025 nM, the Average Rel. Potency, BAF3/G-CSF cell proliferation [1] is reported as 1 and the Average EC50 (n = 12), BAF3/Flt cell proliferation ([3H]-thymidine) [2] is reported as > 200 nM.

B1: recombinant human flt3 ligand (ligand, UniProt P49771 27-185, looked up)
chain: TQDCSFQHSPISSDFAVKIRELSDYLLQDYPVTVASNLQDEELCGGLWRLVLAQRWMERLKTVAGSKMQGLLERVNTEIHFVTKCAFQPPPSCLRFVQTNISRLLQETSEQLVALKPWITRQNFSRCLELQCQPDSSTLPPPWSPRPLEATAPTAPQPP
With B1 the Average EC50 (n = 9), BAF3/G-CSF cell proliferation ([3H]-thymidine) [1] was > 2 nM, the Average EC50 (n = 12), BAF3/Flt cell proliferation ([3H]-thymidine) [2] was 0.03 nM and the Average Rel. Potency, BAF3/Flt cell proliferation [2] was 1.
